Measurements taken from the supplement of paper PMC10567573.

B1: ESRRA (parent)
chain: LGVAQRSLPLQDELAFAEDLVLDE

Variants of: B1
Assay: protein stability index of a GFP-peptide fusion (GPS, HEK-293T) (PSI 1-6); higher = more stable
Conditions: c terminus: a fixed tail appended
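Further: lentivirally expressed fusions sorted by FACS into six bins by GFP to DsRed ratio, PSI derived from sequencing read proportions per bin multiplied by bin number.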

Variant	protein stability index
LGVSQRSLPLQDELAFAEDLVLDE [A4S]	2.81
LGVAQRSLPLQDELAFAEDLVSDE [L22S]	5.02
LGVAQFSLPLQDELAFAEDLVLDE [R6F]	2.26
LGVAQRSIPLQDELAFAEDLVLDE [L8I]	3.03
LGVAQRSLDLQDELAFAEDLVLDE [P9D]	3.17
LGVAQRSLPLQDEPAFAEDLVLDE [L14P]	5.38
LGVAQRSLPVQDELAFAEDLVLDE [L10V]	4.64
LGVAQRSLPLQDELAFAEHLVLDE [D19H]	1.83
LGVAQRSLPLQDELAFAEDYVLDE [L20Y]	4.67
LGVAQRSLPLQDELAFAEGLVLDE [D19G]	2.05
LGVAQRSLPLQDELAFADDLVLDE [E18D]	5.17
DGVAQRSLPLQDELAFAEDLVLDE [L1D]	4.27
LGVAQRSLPLQDELAFAEDPVLDE [L20P]	5.75
LGVAQRSLHLQDELAFAEDLVLDE [P9H]	3.69
LGVAQRSLPLQDELAFAEELVLDE [D19E]	2.34
LGVAQESLPLQDELAFAEDLVLDE [R6E]	3.27
LGVAQRSLSLQDELAFAEDLVLDE [P9S]	3.49
LGVAQRSLPLQDELAFAEDLALDE [V21A]	5.06
LGVAQRSLQLQDELAFAEDLVLDE [P9Q]	4.66
LGVAQRSLPLWDELAFAEDLVLDE [Q11W]	2.71
LGVAQRSLPLQDELAFDEDLVLDE [A17D]	4.99
LGVAQRSLPLQDELAFAEDLVMDE [L22M]	4.2
LGVAQRSLPLQDELAFARDLVLDE [E18R]	5.04
LGVAQRSLPLQDELAFAEDLVQDE [L22Q]	3.81

Variant	protein stability index
LGVAQRTLPLQDELAFAEDLVLDE [S7T]	3.34
TGVAQRSLPLQDELAFAEDLVLDE [L1T]	3.5
LGVAQLSLPLQDELAFAEDLVLDE [R6L]	2.34
LGVCQRSLPLQDELAFAEDLVLDE [A4C]	2.02
LGVAQRSLPLQDELAFAEDGVLDE [L20G]	5.51
LGVAQRGLPLQDELAFAEDLVLDE [S7G]	2.79
LGVAQRSLPLQDELAFAEDQVLDE [L20Q]	4.21
LGVAQRSLPLADELAFAEDLVLDE [Q11A]	3.11
LGVAQRSLPLQDELAFAKDLVLDE [E18K]	4.58
LGVAQRSLILQDELAFAEDLVLDE [P9I]	2.85
LGVAYRSLPLQDELAFAEDLVLDE [Q5Y]	1.97
LGVAQRSLPLQDELAFAEDLVLME [D23M]	2.01
LGVAQRSLPLQDELAFAEDLQLDE [V21Q]	5.24
LGVAQRSLPLQDELAFAEDLWLDE [V21W]	4.03
AGVAQRSLPLQDELAFAEDLVLDE [L1A]	2.99
LGHAQRSLPLQDELAFAEDLVLDE [V3H]	2.76
LGVAQRSLPLQDELAFAEDLVLDN [E24N]	3.24
LGVAQRSLPLQDELAAAEDLVLDE [F16A]	3.16
LGVAQRSGPLQDELAFAEDLVLDE [L8G]	3.74
LGVAQRSLPLQDELAFAEDLVGDE [L22G]	5.51
LGVAQRSLPLQDELRFAEDLVLDE [A15R]	1.82
LGVAQRSLPLQDELAFAEDLVLAE [D23A]	3.11
LGVAQRKLPLQDELAFAEDLVLDE [S7K]	3.13
LAVAQRSLPLQDELAFAEDLVLDE [G2A]	3.14

Variant	protein stability index
LGVAQRSLPLQDELAFAEDAVLDE [L20A]	4.42
LRVAQRSLPLQDELAFAEDLVLDE [G2R]	1.93
SGVAQRSLPLQDELAFAEDLVLDE [L1S]	3.75
LGVAQRSLPLQDELAFAEDLGLDE [V21G]	5.31
LGVAQRSLPLQDELAGAEDLVLDE [F16G]	4.64
LGVAQRSLPLQDELAFAYDLVLDE [E18Y]	3.48
LGVAQRSLPLQDELAFAEDWVLDE [L20W]	4.82
CGVAQRSLPLQDELAFAEDLVLDE [L1C]	2.57
LGVAQRSLPLQDEYAFAEDLVLDE [L14Y]	4.81
LGVAQRSLPLQDELAFAEWLVLDE [D19W]	2.23
LGVAQRSLPLQDELAFAEDLVLPE [D23P]	4.49
LGVAQRSLPLQDELAFAEDLKLDE [V21K]	5.28
LGVAQKSLPLQDELAFAEDLVLDE [R6K]	2.92
LGVAQRSFPLQDELAFAEDLVLDE [L8F]	2.33
LGVAQRSLPLQDELNFAEDLVLDE [A15N]	3.85
LGVAQRSLPLIDELAFAEDLVLDE [Q11I]	3.35
WGVAQRSLPLQDELAFAEDLVLDE [L1W]	1.74
LLVAQRSLPLQDELAFAEDLVLDE [G2L]	2.21
LGVAQRSLPLQDELAFAEDLVYDE [L22Y]	3.98
LGVAQRSLPLQDELAFAEDLFLDE [V21F]	4.63
LGVAQRSLPLGDELAFAEDLVLDE [Q11G]	3.38
LGVAQRYLPLQDELAFAEDLVLDE [S7Y]	2.37
LGVAQRSLPLQDELAFAEDLVLDK [E24K]	4.02
LGVAQRSLYLQDELAFAEDLVLDE [P9Y]	3.66

Variant	protein stability index
LGVAQRSLPLQDELAFAEDLVLQE [D23Q]	1.74
LGVAQRSLPLQDALAFAEDLVLDE [E13A]	1.75
EGVAQRSLPLQDELAFAEDLVLDE [L1E]	4.04
LGVAQRSLPLQDEAAFAEDLVLDE [L14A]	5.24
LGVAQRSLPIQDELAFAEDLVLDE [L10I]	4.7
LGLAQRSLPLQDELAFAEDLVLDE [V3L]	2.61
LGVAQRSLPLQDELAFMEDLVLDE [A17M]	4.88
LGVAQMSLPLQDELAFAEDLVLDE [R6M]	2.35
LGVAQRSLPLQDELAFAEDLPLDE [V21P]	5.27
LGVAQRSLPLQDELAFAPDLVLDE [E18P]	4.64
LGVAQRSLPLQDEVAFAEDLVLDE [L14V]	4.92
LGPAQRSLPLQDELAFAEDLVLDE [V3P]	2.73
LGVAQRSKPLQDELAFAEDLVLDE [L8K]	4.38
LGVAQRSLPLQDELAKAEDLVLDE [F16K]	3.43
LGVAQRSLPLQDELAFANDLVLDE [E18N]	4.9
LGVAQRSLPLQDELAFAEDLVADE [L22A]	3.96
LGVAQRVLPLQDELAFAEDLVLDE [S7V]	2.94
LGVAQRSLPLFDELAFAEDLVLDE [Q11F]	4
LVVAQRSLPLQDELAFAEDLVLDE [G2V]	2.34
LGVAQRSLPLQDELAFTEDLVLDE [A17T]	3.8
LGVAQRSLKLQDELAFAEDLVLDE [P9K]	3.07
LGVAQRSLPLQDNLAFAEDLVLDE [E13N]	5.15
